T1: epithelial glycoprotein-2 (EGP-2) on SW2 human small cell lung carcinoma cells (human, UniProt P16422 24-314)
T1 construct: whole, on cells; also called GA733-2; Ep-CAM
T1 sequence (looked up): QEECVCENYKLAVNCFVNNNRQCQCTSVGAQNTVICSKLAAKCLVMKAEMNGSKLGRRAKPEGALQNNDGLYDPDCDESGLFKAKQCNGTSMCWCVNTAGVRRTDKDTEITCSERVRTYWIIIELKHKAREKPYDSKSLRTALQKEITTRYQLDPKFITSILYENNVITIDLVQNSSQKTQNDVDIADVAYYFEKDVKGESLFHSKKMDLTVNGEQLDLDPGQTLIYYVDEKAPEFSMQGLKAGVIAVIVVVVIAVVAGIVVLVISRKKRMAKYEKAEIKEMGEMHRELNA

T2: recombinant soluble human epithelial glycoprotein-2 (M1-F259) with a six-histidine C-terminal tag (human, UniProt P16422 24-259)
T2 construct: range 1-259; In SPR it was amine-coupled to a CM-5 chip at 350 RU; also called recombinant soluble EGP-2-antigen; immobilized EGP-2
T2 sequence: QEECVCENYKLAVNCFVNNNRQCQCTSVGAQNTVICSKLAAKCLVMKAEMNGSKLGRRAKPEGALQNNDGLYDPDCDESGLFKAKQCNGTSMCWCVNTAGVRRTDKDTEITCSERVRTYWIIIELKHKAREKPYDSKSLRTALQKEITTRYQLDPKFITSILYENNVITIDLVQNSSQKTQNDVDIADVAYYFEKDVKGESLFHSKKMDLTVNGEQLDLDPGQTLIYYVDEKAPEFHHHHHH


Legend:
[1] = target: T1, epithelial glycoprotein-2 (EGP-2) on …; assay: RIA, 99mTc-labelled scFv on SW2 cells, 4 C
Description: The binding affinity of the ^99mTc labelled single-chain Fv fragments was determined on SW2 cells in a radioimmunoaffinity assay (RIA). SW2 (0.5×10⁶) cells were incubated with increasing amounts of single-chain Fv fragment (100 pM-30 nM) for 1 hour at 4° C. For estimation of nonspecific binding control samples of cells were pre-incubated with a 100-fold excess of unlabelled single-chain. Fv fragment for 1 h at 4° C. The bound fraction of single-chain Fv fragment was determined in a scintillation counter. Each obtained value represents the mean of two samples. Counts per minutes (cpm) were plotted against the nanomolar concentration of single-chain Fv fragment and fitted with the non-linear regression function.
High-affinity binding with long residual time on the specific target antigen is regarded as one of the most important characteristics of antibodies for tumor targeting. To ensure that binding affinity was conserved in the grafting experiment dissociation constants of the radiolabelled single-chain Fv fragment were determined on cells in a radioimmunoactrvity assay (RIA).

[2] = target: T2, recombinant soluble human epithelial …; assay: SPR (BIAcore), EGP-2 immobilized, 20 C
Description: (§1) Kinetic rate constants were determined by surface plasmon resonance (SPR) with a BIAcore instrument. Recombinant soluble EGP-2-antigen was covalently coupled to a CM-5 sensor chip via free amine groups resulting, in a surface coverage of 350 resonance units. Single-chain Fv fragments were injected in increasing concentrations (0.1 nM 4.4 μM) at a flow rate of 30 μl/min of degassed PBS/0.005% Tween-20. Association and dissociation rate constants were calculated from the sensorgram the by a global curve fit using the BIAevaluation 3.0 software (Pharmacia).
(§2) To minimize rebinding effects which could lead to an underestimation of the off-rates, we used low density coating and high flow rate.

c-erbB2 = target: T3, c-erbB2 (UniProt P04626 23-652, limits assumed); assay: solid-phase RIA, 99mTc-labelled scFv on coated antigen
T3 construct: also called p185Her2
Description: (§3) In three washing steps cells were centrifuged at 1000 g for 5 min at 4° C., the supernatants discarded and the cells re-suspended in PBS/1% BSA. The remaining radioactivity was then measured in a scintillation counter. In a further binding experiment both-scFv fragments (50 ng) were incubated with different antigens, coated (500 ng/well) on a 96 well microtiter plate, to check for cross-reactivity. The wells were washed three times with PBS/1% BSA and the radioactivity was determined.

[3] = target: T4, EGF-receptor (extracellular domain) (UniProt P00533 25-645); assay: as above
T4 construct: extracellular domain
Description: as §3

[4] = target: T1, epithelial glycoprotein-2 (EGP-2) on …; assay: competition RIA on SW2 cells against 99mTc-labelled 4D5MOC-A and 4D5MOC-B
Description: as §3

[5] = target: T2, recombinant soluble human epithelial …; assay: SPR (BIAcore), EGP-2 immobilized, low density coating and high flow rate
Description: as §1, §2

Row | Kd [1] [nM] | Kd [2] [nM] | koff [2] [s⁻¹] | kon [2] [M⁻¹ s⁻¹] | binding result [4] | half-life of binding [5] [min] | Binder | binding result (c-erbB2) | binding result [3]
1 | 3.6 | 3.5 |  |  |  |  | anti-EGP-2 scFv fragment 4D5MOC-A (scFv, 99mTc-tricarbonyl complexed to the C-terminal His tag in the RIA and Lindmo assays; unlabelled in SPR. The tag itself is not in the letters., the others are not; Expected mass 29,855 Da; also called scFv 4D5MOC-A; graft variant 4D5MOC-A) scFv: DIQMTQSPSSLSASVGDRVTITCRSTKSLLHSNGITYLYWYQQKPGKAPKLLIYQMSNLASGVPSRFSSSGSGTDFTLTISSLQPEDFATYYCAQNLEIPRTFGQGTKVELKRTPSHNSHQVPSAGGPTANSGTSGSEVQLVESGGGLVQPGGSLRLSCAASGYTFTNYGMNWVRQAPGKGLEWMGWINTYTGESTYADSVKGRFTFSLDTSASAAYLQMNSLRAEDTAVYYCARFAIKGDYWGQGTLVTVSS |  | 
2 | 3.7 | 3.9 | 0.000717 | 184000 |  |  | anti-EGP-2 scFv fragment 4D5MOC-B (scFv, 99mTc-tricarbonyl bound to the C-terminal His tag in the RIA and Lindmo assays; unlabelled in SPR, Expected mass 29,897 Da; also called scFv 4D5MOC-B) scFv: DIQMTQSPSSLSASVGDRVTITCRSTKSLLHSNGITYLYWYQQKPGKAPKLLIYQMSNLASGVPSRFSSSGSGTDFTLTISSLQPEDFATYYCAQNLEIPRTFGQGTKVELKRTPSHNSHQVPSAGGPTANSGTSGSEVQLVQSGPGLVQPGGSVRISCAASGYTFTNYGMNWVKQAPGKGLEWMGWINTYTGESTYADSFKGRFTFSLDTSASAAYLQINSLRAEDTAVYYCARFAIKGDYWGQGTLLTVSS | no binding (tested: 50 ng scFv on 500 ng/well antigen) | no binding (tested: 50 ng scFv on 500 ng/well antigen)
3 |  |  |  |  | binds |  | murine monoclonal antibody MOC31 (antibody, V domains shown, Whole murine antibody from hybridoma MOC31; also called mAb MOC31) VH: QVQLQQSGPELKKPGETVKISCKASGYTFTNYGMNWVKQAPGRGLKWMGWINTYTGESTYADDFKGRFAFSLETSASAAYLQINNLKNEDTATYFCARFAIKGDYWGQGTTLTVSS VL: DIVMTQSAFSNPVTLGTSASISCRSTKSLLHSNGITYLYWYLQKPGQSPQLLIYQMSNLASGVPDRFSSSGSGTDFTLRISRVEAEDVGVYYCAQNLEIPRTFGGGTKLEIK |  | 
4 | 10.8 | 3 | 0.0003 | 99000 |  | ~38 | anti-EGP-2 scFv fragment obtained from the murine hybridoma MOC31 (scFv, 99mTc-tricarbonyl bound to the C-terminal His tag in the RIA and Lindmo assays; unlabelled in SPR, Murine scFv expressed from vector pAK400 in E. coli periplasm and purified by IMAC through its His tag; also called scFv MOC31; MOC31 scFv) scFv: DIVMTQSAFSNPVTLGTSASISCRSTKSLLHSNGITYLYWYLQKPGQSPQLLIYQMSNLASGVPDRFSSSGSGTDFTLRISRVEAEDVGVYYCAQNLEIPRTFGGGTKLEIKRTPSHNSHQVPSAGGPTANSGTSGSQVQLQQSGPELKKPGETVKISCKASGYTFTNYGMNWVKQAPGRGLKWMGWINTYTGESTYADDFKGRFAFSLETSASAAYLQINNLKNEDTATYFCARFAIKGDYWGQGTTLTVSS |  | 

Source: patent US20060159683A1 (UNIVERSITY OF ZURICH, published 2006)
